Data set [1] deals with T1, MBP-Miz-1-ZF (Homo sapiens) (UniProt Q13105).
T1 sequence (Q13105 269-793, looked up): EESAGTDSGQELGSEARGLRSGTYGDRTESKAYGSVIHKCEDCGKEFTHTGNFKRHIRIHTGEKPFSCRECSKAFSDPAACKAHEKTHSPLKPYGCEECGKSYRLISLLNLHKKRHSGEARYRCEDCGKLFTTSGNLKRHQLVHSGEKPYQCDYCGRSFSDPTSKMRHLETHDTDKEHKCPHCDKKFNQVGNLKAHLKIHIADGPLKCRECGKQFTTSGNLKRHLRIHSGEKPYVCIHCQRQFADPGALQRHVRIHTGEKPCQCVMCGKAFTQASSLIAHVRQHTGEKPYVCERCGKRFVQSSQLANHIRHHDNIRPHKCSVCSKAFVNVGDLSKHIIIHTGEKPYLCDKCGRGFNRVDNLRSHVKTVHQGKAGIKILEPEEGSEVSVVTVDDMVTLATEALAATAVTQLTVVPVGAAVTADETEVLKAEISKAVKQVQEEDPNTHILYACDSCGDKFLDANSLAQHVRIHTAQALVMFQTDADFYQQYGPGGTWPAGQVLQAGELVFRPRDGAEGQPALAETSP
Briefly: competition. To be noted: EMSA: ZBA (10 mM Tris pH 7.5, 90 mM KCl, 1 mM MgCl2, 90 uM ZnCl2, 5 mM DTT) with 100 ng/ul poly(dI-dC), 15 min, room temperature, 5% acrylamide gel in 0.5X …. Background: In EMSA bound probe runs differently from free probe, usually more slowly.

Another data set concerns the target Cux1 (UniProt P39880). Put plainly: EMSA. The following applies: EMSA: ZBA (10 mM Tris pH 7.5, 90 mM KCl, 1 mM MgCl2, 90 uM ZnCl2, 5 mM DTT) with 100 ng/ul poly(dI-dC), 15 min, room temperature, 5% acrylamide gel in 0.5X ….
In data set [2] the target is T2, MBP-Miz-1-FL (Homo sapiens, UniProt Q13105 1-803).
T2 sequence: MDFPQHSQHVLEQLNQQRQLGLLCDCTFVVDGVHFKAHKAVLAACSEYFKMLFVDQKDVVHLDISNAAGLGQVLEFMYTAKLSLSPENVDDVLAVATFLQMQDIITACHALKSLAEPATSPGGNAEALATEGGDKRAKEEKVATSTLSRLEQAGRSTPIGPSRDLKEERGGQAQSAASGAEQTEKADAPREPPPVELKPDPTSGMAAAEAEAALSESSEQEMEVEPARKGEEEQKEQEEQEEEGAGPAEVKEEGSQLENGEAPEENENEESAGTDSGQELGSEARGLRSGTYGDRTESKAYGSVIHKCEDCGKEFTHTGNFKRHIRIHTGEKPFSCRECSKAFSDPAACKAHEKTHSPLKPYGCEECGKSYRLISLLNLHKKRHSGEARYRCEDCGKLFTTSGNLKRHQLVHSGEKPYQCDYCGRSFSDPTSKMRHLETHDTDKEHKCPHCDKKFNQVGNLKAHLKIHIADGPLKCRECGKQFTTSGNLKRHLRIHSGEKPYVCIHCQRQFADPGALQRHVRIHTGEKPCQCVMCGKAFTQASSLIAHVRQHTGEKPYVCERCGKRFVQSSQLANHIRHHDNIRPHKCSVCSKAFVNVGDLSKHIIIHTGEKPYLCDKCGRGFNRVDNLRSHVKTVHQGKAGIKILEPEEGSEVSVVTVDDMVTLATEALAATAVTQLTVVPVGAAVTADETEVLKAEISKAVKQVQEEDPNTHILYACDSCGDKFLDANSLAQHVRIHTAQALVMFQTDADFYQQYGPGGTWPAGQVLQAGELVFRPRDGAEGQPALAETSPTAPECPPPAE
Put plainly: competition; 200-fold unlabeled P2 vs labeled P2; EMSA: ZBA (10 mM Tris pH 7.5, 90 mM KCl, 1 mM MgCl2, 90 uM ZnCl2, 5 mM DTT) with 100 ng/ul poly(dI-dC), 15 min, room temperature; 5% acrylamide gel in 0.5X Tris-borate at 4 C. To be noted: protein: recombinant; tags: N-terminal MBP; label: 5' IRDye 700 (labeled version); blunt.

Data set [3] concerns the target T2, MBP-Miz-1-FL. Put plainly: competition; 200-fold unlabeled P2 vs labeled P1; EMSA: ZBA (10 mM Tris pH 7.5, 90 mM KCl, 1 mM MgCl2, 90 uM ZnCl2, 5 mM DTT) with 100 ng/ul poly(dI-dC), 15 min, room temperature; 5% acrylamide gel in 0.5X Tris-borate at 4 C. The following applies: protein: recombinant; tags: N-terminal MBP; label: 5' IRDye 700 (labeled version); blunt.

Data set [4] addresses T3, Miz-1 (Figure 7 preparation) (UniProt Q13105 1-803).
T3 sequence: T2 sequence
Briefly: EMSA; EMSA: ZBA (10 mM Tris pH 7.5, 90 mM KCl, 1 mM MgCl2, 90 uM ZnCl2, 5 mM DTT) with 100 ng/ul poly(dI-dC), 15 min, room temperature; 5% acrylamide gel in 0.5X Tris-borate at 4 C. The following applies: protein: ivt; label: 5' IRDye 700; blunt.

For a further data set, the target named is T4, Miz-1 untagged (Homo sapiens, UniProt Q13105 1-803).
T4 sequence: T2 sequence
The data set is described as above. The following applies: protein: ivt; tags: none; label: 5' IRDye 700; blunt.

In data set [5] the target is T2, MBP-Miz-1-FL. The data set is described as above. To be noted: protein: recombinant; tags: N-terminal MBP; label: 5' IRDye 700; blunt.
Data set [6] concerns the target T2, MBP-Miz-1-FL. Put plainly: competition; 200-fold unlabeled P1 vs labeled P2; EMSA: ZBA (10 mM Tris pH 7.5, 90 mM KCl, 1 mM MgCl2, 90 uM ZnCl2, 5 mM DTT) with 100 ng/ul poly(dI-dC), 15 min, room temperature; 5% acrylamide gel in 0.5X Tris-borate at 4 C. To be noted: protein: recombinant; tags: N-terminal MBP; label: 5' IRDye 700 (labeled version); blunt.
Data set [7] deals with T3, Miz-1 (Figure 7 preparation). Put plainly: EMSA; EMSA: ZBA (10 mM Tris pH 7.5, 90 mM KCl, 1 mM MgCl2, 90 uM ZnCl2, 5 mM DTT) with 100 ng/ul poly(dI-dC), 15 min, room temperature; 5% acrylamide gel in 0.5X Tris-borate at 4 C. To be noted: protein: ivt; label: 5' IRDye 700 (labeled version); blunt.
Data set [8] concerns the target T2, MBP-Miz-1-FL. Put plainly: competition; 200-fold unlabeled P1 vs labeled P1; EMSA: ZBA (10 mM Tris pH 7.5, 90 mM KCl, 1 mM MgCl2, 90 uM ZnCl2, 5 mM DTT) with 100 ng/ul poly(dI-dC), 15 min, room temperature; 5% acrylamide gel in 0.5X Tris-borate at 4 C. The following applies: protein: recombinant; tags: N-terminal MBP; label: 5' IRDye 700 (labeled version); blunt.

Data set [9] has as its target T2, MBP-Miz-1-FL. Put plainly: competition; unlabeled P1m3 vs labeled P1 or P2; range over both proteins and probes; EMSA: ZBA (10 mM Tris pH 7.5, 90 mM KCl, 1 mM MgCl2, 90 uM ZnCl2, 5 mM DTT) with 100 ng/ul poly(dI-dC), 15 min, room temperature; 5% acrylamide gel in 0.5X Tris-borate at 4 C. To be noted: protein: recombinant; tags: N-terminal MBP; blunt.

Sequence of Cux1 (P39880 whole entry): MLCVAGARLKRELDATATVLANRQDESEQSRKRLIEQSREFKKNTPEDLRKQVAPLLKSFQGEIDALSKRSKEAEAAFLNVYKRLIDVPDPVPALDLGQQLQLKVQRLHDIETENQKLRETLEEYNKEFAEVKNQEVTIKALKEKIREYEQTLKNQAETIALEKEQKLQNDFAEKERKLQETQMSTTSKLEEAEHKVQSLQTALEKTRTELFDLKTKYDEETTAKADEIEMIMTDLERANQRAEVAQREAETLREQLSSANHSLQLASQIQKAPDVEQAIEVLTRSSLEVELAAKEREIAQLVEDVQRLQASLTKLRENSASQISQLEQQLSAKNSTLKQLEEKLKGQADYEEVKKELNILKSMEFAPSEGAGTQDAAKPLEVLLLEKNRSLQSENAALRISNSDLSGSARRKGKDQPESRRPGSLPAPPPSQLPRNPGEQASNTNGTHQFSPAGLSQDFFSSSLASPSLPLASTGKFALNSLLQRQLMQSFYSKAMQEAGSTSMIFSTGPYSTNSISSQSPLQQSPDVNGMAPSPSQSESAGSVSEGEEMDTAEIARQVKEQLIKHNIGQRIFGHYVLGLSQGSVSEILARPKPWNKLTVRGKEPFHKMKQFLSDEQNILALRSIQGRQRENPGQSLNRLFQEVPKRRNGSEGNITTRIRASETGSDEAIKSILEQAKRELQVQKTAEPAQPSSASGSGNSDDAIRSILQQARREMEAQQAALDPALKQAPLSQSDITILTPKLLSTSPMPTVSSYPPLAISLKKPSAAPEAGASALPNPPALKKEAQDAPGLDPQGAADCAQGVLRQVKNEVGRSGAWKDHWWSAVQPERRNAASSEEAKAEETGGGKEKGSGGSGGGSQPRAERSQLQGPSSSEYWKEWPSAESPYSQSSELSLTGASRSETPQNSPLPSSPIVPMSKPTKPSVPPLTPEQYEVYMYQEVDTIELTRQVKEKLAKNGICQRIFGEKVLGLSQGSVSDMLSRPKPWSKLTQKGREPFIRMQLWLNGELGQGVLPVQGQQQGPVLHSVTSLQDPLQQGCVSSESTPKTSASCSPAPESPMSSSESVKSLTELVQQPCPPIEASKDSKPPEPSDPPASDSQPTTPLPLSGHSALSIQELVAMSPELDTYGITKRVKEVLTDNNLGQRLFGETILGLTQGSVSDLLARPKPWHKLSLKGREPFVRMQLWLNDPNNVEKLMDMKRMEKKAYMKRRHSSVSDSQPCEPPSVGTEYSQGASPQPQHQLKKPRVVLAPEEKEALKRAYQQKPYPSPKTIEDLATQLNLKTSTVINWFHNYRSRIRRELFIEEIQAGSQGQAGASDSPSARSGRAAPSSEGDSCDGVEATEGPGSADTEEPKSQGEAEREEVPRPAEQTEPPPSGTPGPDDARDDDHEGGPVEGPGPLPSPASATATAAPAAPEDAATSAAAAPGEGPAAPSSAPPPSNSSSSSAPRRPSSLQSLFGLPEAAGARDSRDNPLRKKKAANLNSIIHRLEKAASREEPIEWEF

Take “GAATTATCCGTAATGCATCGAGGT (double strand) [P1m2]”: the binding signal (% reduction of bound labeled P1) in data set [1] (unlabeled P1m2 vs labeled P1, competition nearly eliminated) came to 24.
For the molecule “AGGGTTGGTATCGATTATCGAGTT (double strand) [P2]”, the binding signal (fold bound intensity P2 over P1) with Cux1 was found to be 2.
As to “GAATTATCGGTAATCCATCGAGGT (double strand) [P1]”, in the data set with Cux1 (scale: bound intensity relative to P2), the binding signal is 0.5. In addition, the binding signal (% reduction of bound labeled P1) in data set [1] (200-fold unlabeled P1 vs labeled P1) is 87.
As to “GAATTAGGAGTAAACCATCGAGGT (double strand) [P1m1]”, the binding signal (% reduction of bound labeled P1) in data set [1] (unlabeled P1m1 vs labeled P1, competition nearly eliminated) turned out to be 7.

B1: P2 (dsDNA)
DNA 1: AGGGTTGGTATCGATTATCGAGTT
DNA 2: AACTCGATAATCGATACCAACCCT
As for B1, the binding signal in the data set with MBP-Miz-1-FL [2] is 6.4 fold reduction of bound labeled P2; with MBP-Miz-1-FL [3], 2 fold reduction of bound labeled P1.

B2: CP (dsDNA)
DNA 1: CAAAAGTGCGGCTGCGTGGTGCAC
DNA 2: GTGCACCACGCAGCCGCACTTTTG
Take B2: the binding result (in data set [4]; in the data set with Miz-1 untagged; with MBP-Miz-1-FL [5]) was “no binding” each time.

B3: P1 (dsDNA)
DNA 1: GAATTATCGGTAATCCATCGAGGT
DNA 2: ACCTCGATGGATTACCGATAATTC
On to B3, for which the results for the binding signal (with MBP-Miz-1-FL [6]; in [7]; with MBP-Miz-1-FL [8]) were 4.8 fold reduction of bound labeled P2, ~2.5 fold bound intensity P1 over P2 and 5.3 fold reduction of bound labeled P1, respectively.

B4: P1m3 (dsDNA)
DNA 1: ACCCTTATATCGGTAATCGGTAAG
DNA 2: CTTACCGATTACCGATATAAGGGT
For B4, the binding result with MBP-Miz-1-FL [9] is listed as “binds”.

(Values after article PMC4077741, “Miz-1 Activates Gene Expression via a Novel Consensus DNA Binding Motif”.)
